According to US20090196913A1, “Anti-Alpha-V Immunoliposome Composition, Methods, and Uses” (priority 2007, published 2009):

Tests used:
[1] = system: A375.S2 cells; test: Binding and internalization at 37° C., confocal microscopy; format: cell-based, human; details: 37° C. for 10 min, washed, 1 hour at 37° C.
Protocol: These targeted-liposomes were used in the cytotoxicity assay using the various cells lines, as described below. A375.S2 cells were harvested by scraping and then resuspended to obtain individualized cells and rejuvenated for 1 hour, at 37° C. About 1 million cells of each tumor type were counted and distributed into individual centrifugation tubes. The tubes were spun to obtain a cell pellet. […] Cells were treated with the liposome formulations containing either a doxorubicin payload or a fluorescent marker (Dextran Alexa Fluor 488). Treatment was terminated by adding 1 mL of washing media (serum free), vortexing briefly, and centrifuging to recover a cell pellet The cells in the pellet were resuspend in washing media, vigorously shaken for 10 minutes at 37° C. and then centrifuged again (440 rpm). The cell pellet was left in 100 μL of media, an aliquot of 8 μL was taken and placed on a glass slide for observation under a confocal microscope.

[2] = biological target: T1, integrin αvβ5 (Homo sapiens, UniProt P06756); test: scFv vs Mab integrin competition assay; format: binding; details: αvβ5 coated plate, CNTO95 mAb at 0.2 nM
T1 construct: purchased Chemicon International Inc
T1 sequence (P06756 31-889 limits assumed): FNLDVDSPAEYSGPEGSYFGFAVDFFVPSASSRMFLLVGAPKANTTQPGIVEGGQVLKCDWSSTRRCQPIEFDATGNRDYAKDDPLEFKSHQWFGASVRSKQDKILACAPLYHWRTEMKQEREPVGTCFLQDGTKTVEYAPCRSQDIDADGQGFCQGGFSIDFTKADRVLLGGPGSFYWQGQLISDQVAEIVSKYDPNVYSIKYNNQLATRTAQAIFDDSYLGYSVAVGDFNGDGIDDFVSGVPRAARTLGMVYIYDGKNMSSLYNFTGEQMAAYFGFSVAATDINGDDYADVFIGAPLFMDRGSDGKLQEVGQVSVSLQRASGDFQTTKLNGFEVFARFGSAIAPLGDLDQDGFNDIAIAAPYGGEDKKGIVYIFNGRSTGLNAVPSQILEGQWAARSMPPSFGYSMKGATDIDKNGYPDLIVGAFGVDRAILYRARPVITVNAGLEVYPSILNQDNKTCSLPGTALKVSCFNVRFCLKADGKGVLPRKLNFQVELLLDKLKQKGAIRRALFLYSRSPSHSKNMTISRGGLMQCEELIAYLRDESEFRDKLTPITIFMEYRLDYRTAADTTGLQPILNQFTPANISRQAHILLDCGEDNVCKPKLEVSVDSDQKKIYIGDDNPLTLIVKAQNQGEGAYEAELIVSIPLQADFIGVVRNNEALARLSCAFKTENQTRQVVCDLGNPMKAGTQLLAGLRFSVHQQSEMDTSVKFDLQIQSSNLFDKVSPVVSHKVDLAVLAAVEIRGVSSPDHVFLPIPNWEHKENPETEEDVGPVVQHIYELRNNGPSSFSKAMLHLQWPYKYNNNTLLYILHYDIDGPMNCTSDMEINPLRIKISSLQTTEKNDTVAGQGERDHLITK
T1 sequence (P06756 891-1048 partner limits assumed): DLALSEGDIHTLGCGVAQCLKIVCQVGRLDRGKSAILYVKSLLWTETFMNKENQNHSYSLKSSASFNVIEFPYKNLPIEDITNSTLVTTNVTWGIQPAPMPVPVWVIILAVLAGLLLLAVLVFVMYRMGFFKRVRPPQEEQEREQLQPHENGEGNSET
T1 sequence (P18084 24-799 partner): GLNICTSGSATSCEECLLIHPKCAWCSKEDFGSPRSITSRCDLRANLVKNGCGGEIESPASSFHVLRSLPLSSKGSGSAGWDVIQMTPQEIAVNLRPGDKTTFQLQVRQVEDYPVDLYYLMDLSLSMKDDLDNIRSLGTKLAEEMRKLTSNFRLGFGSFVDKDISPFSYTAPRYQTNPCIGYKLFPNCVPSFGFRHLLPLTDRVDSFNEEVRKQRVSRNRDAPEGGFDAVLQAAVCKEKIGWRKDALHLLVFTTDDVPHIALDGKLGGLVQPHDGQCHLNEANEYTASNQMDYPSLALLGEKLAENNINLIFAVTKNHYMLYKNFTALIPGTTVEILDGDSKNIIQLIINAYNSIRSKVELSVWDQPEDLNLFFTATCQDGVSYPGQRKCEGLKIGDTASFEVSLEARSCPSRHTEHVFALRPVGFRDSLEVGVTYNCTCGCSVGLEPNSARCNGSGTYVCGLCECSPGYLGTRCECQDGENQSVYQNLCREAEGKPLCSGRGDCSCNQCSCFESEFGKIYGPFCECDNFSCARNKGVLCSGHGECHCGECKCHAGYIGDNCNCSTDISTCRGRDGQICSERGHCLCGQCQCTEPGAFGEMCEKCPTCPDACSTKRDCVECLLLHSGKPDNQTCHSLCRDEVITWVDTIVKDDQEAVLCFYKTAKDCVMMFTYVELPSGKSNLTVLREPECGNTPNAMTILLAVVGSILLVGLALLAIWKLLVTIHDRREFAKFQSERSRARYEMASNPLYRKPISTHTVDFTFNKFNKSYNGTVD
Protocol: (§1) To compare the binding affinity of scFv CNTO95 and CNTO 95 mAb, the 96-well plates were coated with 100 ul of integrin αvβ3 or αvβ5 as described above. CNTO95 mAb was added to each well at 0.8 nM for αvβ3 coated plate or 0.2 nM for αvβ5 coated plate. Controls and scFv purified protein diluted serially at 3-fold with TBST were added to the coated wells in duplicate. The mix of CNTO95 mAb and sFv were incubated at 37° C. for 2 hrs. The detection antibody was 1:10K dilution of peroxidase conjugated affinipure F(ab′)2 fragment Goat anti-human IgG, Fc fragment specific (minimal cross reaction to Bovine, Horse and mouse serum protein) (Jackson Immunoresearch ). The antibody was incubated on the plate 1 hr at 37° C. and the color was developed and read as above. CNTO95 mAb binding to both alpha-V-integrins was competed with the […] (FIGS. 15A and B).

[3] = biological target: T2, integrin αvβ3 (Homo sapiens, UniProt P06756); test: scFv vs Mab integrin competition assay; format: binding; details: αvβ3 coated plate, CNTO95 mAb at 0.8 nM
T2 construct: purchased Chemicon International Inc
T2 sequence (P06756 31-889 limits assumed): as the sequence (P06756 31-889 limits assumed) above
T2 sequence (P06756 891-1048 partner limits assumed): as the sequence (P06756 891-1048 partner limits assumed) above
T2 sequence (P05106 27-788 partner): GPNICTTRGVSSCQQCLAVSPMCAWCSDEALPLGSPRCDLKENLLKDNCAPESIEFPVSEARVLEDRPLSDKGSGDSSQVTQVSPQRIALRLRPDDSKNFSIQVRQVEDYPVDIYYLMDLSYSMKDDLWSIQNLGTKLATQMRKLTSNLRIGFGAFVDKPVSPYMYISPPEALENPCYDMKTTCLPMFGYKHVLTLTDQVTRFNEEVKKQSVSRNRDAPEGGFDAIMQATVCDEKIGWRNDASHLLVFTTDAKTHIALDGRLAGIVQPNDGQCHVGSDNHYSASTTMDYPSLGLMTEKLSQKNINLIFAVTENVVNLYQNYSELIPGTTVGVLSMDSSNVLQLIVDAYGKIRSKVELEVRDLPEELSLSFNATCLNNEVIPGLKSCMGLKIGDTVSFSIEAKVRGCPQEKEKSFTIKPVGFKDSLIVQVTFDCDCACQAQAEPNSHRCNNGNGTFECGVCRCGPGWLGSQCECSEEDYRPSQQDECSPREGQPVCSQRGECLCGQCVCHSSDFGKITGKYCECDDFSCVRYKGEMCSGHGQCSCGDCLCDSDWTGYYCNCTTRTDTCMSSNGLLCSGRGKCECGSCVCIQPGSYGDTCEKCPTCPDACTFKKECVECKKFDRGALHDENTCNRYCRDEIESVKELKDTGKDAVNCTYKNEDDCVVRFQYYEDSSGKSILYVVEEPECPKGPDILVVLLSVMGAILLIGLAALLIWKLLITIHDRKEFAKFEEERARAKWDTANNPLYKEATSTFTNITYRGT
Protocol: as §1

[4] = biological target: T1, integrin αvβ5; test: scFv binding ELISA on integrin-coated plates; details: detected by HRP anti-His Ab and anti-CNTO95 Ab (c508)
Protocol: (§2) The binding affinity of scFv CNTO95 was measured using a validated sandwich enzyme-linked immunoassay. The 96-well plates (Coasta, high binding plate) were coated with 100 ul of integrin αvβ3 or αvβ5 (Chemicon International Inc ) at 1 ug/ml in coating buffer (0.75 g Na2CO3 and 1.45 g NaHCO3 in 500 ml H2O) and incubated overnight at 4° C. The plates were blocked with Superblock blocking buffer in PBS (Pierce) at room temperature for 1 hr. Wells were washed with PBS+0.05% Tween 20 between each step. Controls and scFv purified protein were diluted serially at 3-fold with TBST, and added to the coated wells in duplicate, and incubated at 37° C. for 2 hrs. Two methods were used to detect the binding. For anti-his ELISA 1:1000 diluted HRP mouse anti-his antibody were added to each well and incubated for 1 hr. For the anti-CNTO95 anti-idiotype ELISA, an aliquot of 1:1000 diluted 1 mg/ml C508 antibody was added to each well and incubated for 1 hr. […]
(§3) The Elisa was developed using OPD tablet (Sigma) in development buffer for 15 min at room temperature. […] The binding affinity was measured in a plate reader at 490 nm. In the assay, purified CNTO95 scFv protein from E. coli bound both αvβ3 and αvβ5 integrin proteins (FIG. 14) as shown for integrin-coated ELISA plates and was detected by HRP anti-His Ab as well as the anti-CNTO95 Ab (c508).

[5] = biological target: T2, integrin αvβ3; test: scFv binding ELISA on integrin-coated plates; details: detected by HRP anti-His Ab and anti-CNTO95 Ab (c508)
Protocol: as §2, §3

Compound | binding and internalization (confocal microscopy) [1] | competition with CNTO95 mAb for integrin binding [2] | competition with CNTO95 mAb for integrin binding [3] | binding to integrin-coated ELISA plates [4] | binding to integrin-coated ELISA plates [5]
COc1cccc2c1C(=O)c1c(O)c3c(c(O)c1C2=O)C[C@@](O)(C(=O)CO)C[C@@H]3O[C@H]1C[C@H](N)[C@H](O)[C@H](C)O1 [free dox, doxorubicin] | drug internalization is evident |  |  |  | 
CNTO95 scFv: single chain variable fragment of CNTO 95, VH-(Gly4Ser)3-VL, R18L, 6×His tag and Gly4Cys (SEQ ID NO: 4) |  | effectively competes | effectively competes | bound | bound
